Laboratory results: publication PMC12541693

How the values were obtained:
Test in all cases: potentiometry
Conditions in all cases: 298.2 K; 0.1 M KCl; none (unbuffered, KCl background); metal-free (apo) peptide
[1] = target: Asp10 (position 10, …-)
[2] = target: Lys13 (position 13, MVDAYKG----)
[3] = target: Tyr12 (position 12, VMVDAYKG---)
[4] = target: Asp11 (position 11, …-)
[5] = target: Lys14 (position 14, MVDAYKG----)
[6] = target: Tyr13 (position 13, VMVDAYKG---)

Protein | pKa [1] | pKa [2] | pKa [3] | pKa [4] | pKa [5] | pKa [6]
GWHHQIVMVDAYKG [Pep1 (bis-histidyl minimal SpyTag peptide) (synthetic construct (SpyTag-derived))] | 3.65(4) | 10.10(9) | 9.51(7) | – | – | –
GWHHAQIVMVDAYKG [Pep2 (bis-histidyl minimal SpyTag peptide with Ala spacer) (synthetic construct (SpyTag-derived))] | – | – | – | 3.67(5) | 10.16(5) | 9.7(1)
